Reference: US20120258099A1
Ends that are not written are not given here. GST = glutathione S-transferase tag encoded by vector pGEX-5X2

Assays:
MBP-Tgat (aa 1-255) [1] = target: MBP-Tgat (aa 1-255) (UniProt O75962); assay: cell-based or functional assay
MBP-Tgat (aa 1-255) [2] = target: MBP-Tgat (aa 1-255) (UniProt O75962); assay: FRET mant-GTP nucleotide exchange kinetics; kobs against GST-TRIP peptide concentration (up to 100 µM), hyperbolic fit; RhoA 1 µM, Tgat 0.5 µM

B1: GST-TRIPE32G (peptide, not shown: a dimerising Fc or GST; large carriers; small tags and cut ends)
peptide: AREGADGAICGYNLATLVMLGPSERVFCPLCGPCSSDIYELM
modifications: not fully specified (N-terminus); cysteine pairing not given here; also: fused to GST, GST carrier and linker letters not given here
MBP-Tgat (aa 1-255) [1]
  efficiency at inhibiting the exchange activity of Tgat, against TRIPα: 15 fold
MBP-Tgat (aa 1-255) [2]
  Ki: 7.4 µM

B2: GST-TRIPT16M/L17S (peptide, not shown: a dimerising Fc or GST; large carriers; small tags and cut ends)
peptide: AREGADGAICGYNLAMSVMLGPSERVFCPLCEPCSSDIYELM
modifications: not fully specified (N-terminus); cysteine pairing not given here; also: fused to GST, GST carrier and linker letters not given here
MBP-Tgat (aa 1-255) [1]
  efficiency at inhibiting the exchange activity of Tgat, against TRIPα: 15 fold
MBP-Tgat (aa 1-255) [2]
  Ki: 5.1 µM

B3: GST-TRIPα (peptide, not shown: a dimerising Fc or GST)
chain: {GST}-AREGADGAICGYNLATLVMLGPSERVFCPLCEPCSSDIYELM
modifications: cysteine pairing not given here; also: fused to GST, GST carrier and linker letters not given here
MBP-Tgat (aa 1-255) [2]
  Ki: 89 µM
